From paper PMC6309729 (Biochemistry, 2011) come the findings set out here.

Where two headings read alike, the source gives them in different places.

The labels stand for the following.
B3: cpFtsY (chloroplast SRP receptor), wildtype (natural protein, UniProt O80842 41-366, looked up)
chain: CSAGPSGFFTRLGRLIKEKAKSDVEKVFSGFSKTRENLAVIDELLLFWNLAETDRVLDELEEALLVSDFGPKITVRIVERLREDIMSGKLKSGSEIKDALKESVLEMLAKKNSKTELQLGFRKPAVIMIVGVNGGGKTTSLGKLAHRLKNEGTKVLMAAGDTFRAAASDQLEIWAERTGCEIVVAEGDKAKAATVLSKAVKRGKEEGYDVVLCDTSGRLHTNYSLMEELIACKKAVGKIVSGAPNEILLVLDGNTGLNMLPQAREFNEVVGITGLILTKLDGSARGGCVVSVVEELGIPVKFIGVGEAVEDLQPFDPEAFVNAIFS

Experiment [1] addresses B3. Put plainly: GTPase inhibition assay.
The target in experiment [2] is B3. In words: cell-based or functional assay.
Experiment [3] concerns the target B3. Put plainly: GTPase inhibition assay. The source holds these as a separate data set.
For experiment [4], the target named is T1, cpSRP54 (chloroplast SRP54), wildtype (Arabidopsis thaliana, UniProt P37107 76-564).
T1 sequence (looked up): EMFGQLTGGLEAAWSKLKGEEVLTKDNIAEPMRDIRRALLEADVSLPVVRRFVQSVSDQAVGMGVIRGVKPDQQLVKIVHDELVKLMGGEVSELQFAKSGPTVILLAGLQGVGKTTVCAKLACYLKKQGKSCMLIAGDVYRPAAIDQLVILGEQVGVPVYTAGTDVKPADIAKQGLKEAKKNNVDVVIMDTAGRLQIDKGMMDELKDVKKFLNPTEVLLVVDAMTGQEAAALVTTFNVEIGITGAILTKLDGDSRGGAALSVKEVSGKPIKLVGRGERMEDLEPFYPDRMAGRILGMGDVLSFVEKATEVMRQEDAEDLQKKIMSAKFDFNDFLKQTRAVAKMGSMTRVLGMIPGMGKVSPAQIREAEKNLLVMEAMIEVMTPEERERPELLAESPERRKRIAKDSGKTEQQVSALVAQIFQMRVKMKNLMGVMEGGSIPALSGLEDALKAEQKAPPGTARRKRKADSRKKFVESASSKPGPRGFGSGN
Put plainly: cell-based or functional assay.

In experiment [5] the target is T1, cpSRP54 (chloroplast SRP54), wildtype. In words: GTPase inhibition assay.
For experiment [6] the target is unchanged. In words: GTPase inhibition assay. This is another data set of the same source.

B1: cpSRP54(A143L) (natural protein)
chain: MFGQLTGGLEAAWSKLKGEEVLTKDNIAEPMRDIRRALLEADVSLPVVRRFVQSVSDQAVGMGVIRGVKPDQQLVKIVHDELVKLMGGEVSELQFAKSGPTVILLAGLQGVGKTTVCAKLACYLKKQGKSCMLIAGDVYRPALIDQLVILGEQVGVPVYTAGTDVKPADIAKQGLKEAKKNNVDVVIMDTAGRLQIDKGMMDELKDVKKFLNPTEVLLVVDAMTGQEAAALVTTFNVEIGITGAILTKLDGDSRGGAALSVKEVSGKPIKLVGRGERMEDLEPFYPDRMAGRILGMGDVLSFVEKATEVMRQEDAEDLQKKIMSAKFDFNDFLKQTRAVAKMGSMTRVLGMIPGMGKVSPAQIREAEKNLLVMEAMIEVMTPEERERPELLAESPERRKRIAKDSGKTEQQVSALVAQIFQMRVKMKNLMGVMEGGSIPALSGLEDALKAEQKAPPGTARRKRKADSRKKFVESASSKPGPRGFGSGN
modifications: GTP/GMPPNP-Mg2+ state. Paper numbering + 76 = precursor (Met77 = 1, taken as the NdeI start)
B1 yielded a Ki in experiment [1] greater than 40 µM. Moreover, in experiment [2], the “kcat/Km of the reciprocally stimulated GTPase reaction” value (“kcat/Km” for short) turned out to be 200 M⁻¹ s⁻¹.

B2: cpSRP54(A143W) (natural protein)
chain: MFGQLTGGLEAAWSKLKGEEVLTKDNIAEPMRDIRRALLEADVSLPVVRRFVQSVSDQAVGMGVIRGVKPDQQLVKIVHDELVKLMGGEVSELQFAKSGPTVILLAGLQGVGKTTVCAKLACYLKKQGKSCMLIAGDVYRPAWIDQLVILGEQVGVPVYTAGTDVKPADIAKQGLKEAKKNNVDVVIMDTAGRLQIDKGMMDELKDVKKFLNPTEVLLVVDAMTGQEAAALVTTFNVEIGITGAILTKLDGDSRGGAALSVKEVSGKPIKLVGRGERMEDLEPFYPDRMAGRILGMGDVLSFVEKATEVMRQEDAEDLQKKIMSAKFDFNDFLKQTRAVAKMGSMTRVLGMIPGMGKVSPAQIREAEKNLLVMEAMIEVMTPEERERPELLAESPERRKRIAKDSGKTEQQVSALVAQIFQMRVKMKNLMGVMEGGSIPALSGLEDALKAEQKAPPGTARRKRKADSRKKFVESASSKPGPRGFGSGN
modifications: GTP/GMPPNP-Mg2+ state. Paper numbering + 76 = precursor
In the case of B2, the Ki in experiment [1] was greater than 40 µM; in experiment [3], greater than 50 µM. Further, the “kcat/Km” value in experiment [2] amounted to 617 M⁻¹ s⁻¹.

In the case of B3, the “kcat/Km” value in experiment [4] turned out to be 300000 M⁻¹ s⁻¹.

B4: cpFtsY(A169L) (natural protein)
chain: CSAGPSGFFTRLGRLIKEKAKSDVEKVFSGFSKTRENLAVIDELLLFWNLAETDRVLDELEEALLVSDFGPKITVRIVERLREDIMSGKLKSGSEIKDALKESVLEMLAKKNSKTELQLGFRKPAVIMIVGVNGGGKTTSLGKLAHRLKNEGTKVLMAAGDTFRAALSDQLEIWAERTGCEIVVAEGDKAKAATVLSKAVKRGKEEGYDVVLCDTSGRLHTNYSLMEELIACKKAVGKIVSGAPNEILLVLDGNTGLNMLPQAREFNEVVGITGLILTKLDGSARGGCVVSVVEELGIPVKFIGVGEAVEDLQPFDPEAFVNAIFS
modifications: GTP/GMPPNP-Mg2+ state. Paper numbering + 38 = precursor (motif D163-x-F165-R166-A167-A168-A169), anchored on the named residues
For B4, the inhibition constant (Ki) in experiment [5] was greater than 40 µM. Also, the “kcat/Km” value in experiment [4] was found to be 517 M⁻¹ s⁻¹.

B5: cpFtsY(A169W) (natural protein)
chain: CSAGPSGFFTRLGRLIKEKAKSDVEKVFSGFSKTRENLAVIDELLLFWNLAETDRVLDELEEALLVSDFGPKITVRIVERLREDIMSGKLKSGSEIKDALKESVLEMLAKKNSKTELQLGFRKPAVIMIVGVNGGGKTTSLGKLAHRLKNEGTKVLMAAGDTFRAAWSDQLEIWAERTGCEIVVAEGDKAKAATVLSKAVKRGKEEGYDVVLCDTSGRLHTNYSLMEELIACKKAVGKIVSGAPNEILLVLDGNTGLNMLPQAREFNEVVGITGLILTKLDGSARGGCVVSVVEELGIPVKFIGVGEAVEDLQPFDPEAFVNAIFS
modifications: GTP/GMPPNP-Mg2+ state. Paper numbering + 38 = precursor
Turning to B5, the results for the Ki in experiment [5] and in experiment [6] were greater than 40 µM and greater than 50 µM, respectively. In addition, in experiment [4], the “kcat/Km” value is 467 M⁻¹ s⁻¹.
